Measurements reported in patent US11174322B2, “Antibodies and peptides to treat HCMV related diseases” (priority 2017, dated 2021).

B1: pUL56 depleted of its W671-F680 fragment (protein)
chain: MEMNLLQKLCVVCSKCNEYAMELECLKYCDPNVLLAESTPFKRNAAAIVYLYRKIYPEVVAQNRTQSSLLTLYLEMLLKALHEDTALLDRALMAYSRQPDRAAFYRTVLRLDRCDRHHTVELQFTDNVRFSVSLATLNDIERFLCKMNYVYGILAPEAGLEVCAQLLELLRRLCGISPVARQEVYVEGTTCAQCYEELTIIPNQGRSLNKRLQGLLCNHIAVHRPSSQSDVNIQTVEQDLLDLTTRIPHLAGVLSALKSLFSSSSAYHSYIQEAEEALREYNLFTDIPERIYSLSDFTYWSRTSEVIVKRVGITIQQLNVYHQLCRALMNGISRHLYGEDVEDIFVLGEKALDGEERMFVGSVFAAPNRIIDLITSLSIQAFEDNPVFNKLHESNEMYTKIKHILEEIRRPLPDGTGGDGPEGEAIHLRGREAMSGTGTTLMTASNSSNSSTHSQRNNGGGGRARGGGKKAVGGGANGQDGDGSENGLRVRNCDEHEALDLVDARSRIHNVTREVNVRKRAYLQKVSEVGYGKVIRCIKTQERLTSKLIDVNLVGPLCLDFISKLMNGFLYRSQYHQDQDVVDVGDQFTYDEHLYVVNNLIHKSLPVESLPLLGQQIYELCNGPLFTHCTDRYPLSHNVDMAYACDNAGVLPHVKDDLVKCAEGTVYPSENFSDCQDLNVLQKEMWMHVRELVLSVALYNETFGKQLSIACLRDELHPDRDVILTYNKEWPLLLRHEGNLYKSKDLYLLLYRHLSRPDESGDVPTAPVAKPSTLTAAAAVSGAFREPDRPWLPSPYPSSSTAGVSRRVRATRKRPRRASSLLDLARDEHGIQDLVPGSLR
modifications: left off: small tags and cut ends
B2: 3xHA-pUL56: full-length amino-terminal 3xHA-tagged pUL56, HCMV large terminase subunit, purified from transfected HEK293 (protein)
chain: MEMNLLQKLCVVCSKCNEYAMELECLKYCDPNVLLAESTPFKRNAAAIVYLYRKIYPEVVAQNRTQSSLLTLYLEMLLKALHEDTALLDRALMAYSRQPDRAAFYRTVLRLDRCDRHHTVELQFTDNVRFSVSLATLNDIERFLCKMNYVYGILAPEAGLEVCAQLLELLRRLCGISPVARQEVYVEGTTCAQCYEELTIIPNQGRSLNKRLQGLLCNHIAVHRPSSQSDVNIQTVEQDLLDLTTRIPHLAGVLSALKSLFSSSSAYHSYIQEAEEALREYNLFTDIPERIYSLSDFTYWSRTSEVIVKRVGITIQQLNVYHQLCRALMNGISRHLYGEDVEDIFVLGEKALDGEERMFVGSVFAAPNRIIDLITSLSIQAFEDNPVFNKLHESNEMYTKIKHILEEIRRPLPDGTGGDGPEGEAIHLRGREAMSGTGTTLMTASNSSNSSTHSQRNNGGGGRARGGGKKAVGGGANGQDGDGSENGLRVRNCDEHEALDLVDARSRIHNVTREVNVRKRAYLQKVSEVGYGKVIRCIKTQERLTSKLIDVNLVGPLCLDFISKLMNGFLYRSQYHQDQDVVDVGDQFTYDEHLYVVNNLIHKSLPVESLPLLGQQIYELCNGPLFTHCTDRYPLSHNVDMAYACDNAGVLPHVKDDLVKCAEGTVYPSEWMVVKYMGFFNFSDCQDLNVLQKEMWMHVRELVLSVALYNETFGKQLSIACLRDELHPDRDVILTYNKEWPLLLRHEGNLYKSKDLYLLLYRHLSRPDESGDVPTAPVAKPSTLTAAAAVSGAFREPDRPWLPSPYPSSSTAGVSRRVRATRKRPRRASSLLDLARDEHGIQDLVPGSLR
modifications: left off: small tags and cut ends
notes: full-length amino-terminal 3xHA-tagged pUL56, HCMV large terminase subunit, purified from transfected HEK293

Biological target: T1, full-length pUL89 (His-pUL89) (Human cytomegalovirus, UniProt P16732)
T1 construct: made in house; host or cells: HEK293
Assay: Alpha assay (Amplified Luminescent Proximity Homogeneous Assay) of the pUL56/pUL89 protein-protein interaction
Type: binding, human cytomegalovirus (HCMV), AD169
Protocol: FIG. 2: Determination of pUL56 binding domains for the interaction with pUL89 Alpha assay results. The Alpha assay for the binding of full-length pUL89 (His-pUL89, 1.5E+03 nM) was performed with 5E+02 nM wild-type pUL56 (HA-pUL56) or a deletion mutant of pUL56 (HA-pUL56 Del W671-F680). As a negative control, proteins were used alone and a reaction was performed without proteins (mock). Two measures for each reaction were performed in duplicate.
Alpha (Amplified Luminescent Proximity Homogeneous Assay) experiments were conducted according to the manufacturer's protocol (PerkinElmer, USA). Five μL of transfected MRC-5 lysate with HCMV-BAC is first disposed in wells of a 96-well AlphaPlate. The final concentration of each proteins was optimized to obtain the best value of interaction. Ten μL of each purified protein were combined (to give a final assay concentration of 500 nM of 3xHA-pUL56 and 1.5 μM of 6xHis-pUL89). Ten μL and 15 μL of 10 mg/mL of donor beads and acceptor beads, respectively, were added and incubated for 1 hour. Plates were read on a PerkinElmer EnVision™ plate reader using an excitation wavelength of 680 nm and emission detection was set at 615 nm.
HEK293 were transfected with SC784 and pCI-neo His-89 expression plasmids and protein-protein interactions were carried out by the Alpha assay. This technology represents a powerful method to highlight protein-protein interactions (Ullman et al., 1994) (Waller et al., 2010). […]
Alpha assay needs both acceptor and donor beads. […] In the absence of a specific biological interaction between proteins, singlet molecules produced by the Donor bead cannot be detected beyond 200 nm from the Acceptor bead (data not shown). […] Alpha assays with 3xHA-pUL56 and 6xHis-pUL89 results in the production of over 9,000 relative light units (RLU), over two-fold more than negative controls (3xHA-pUL56 or His-pUL89) (FIG. 2). pUL56 depleted of its W671-F680 fragment was in turn soaked with pUL89-WT and their affinity assessed by Alpha analysis. […]

T1 sequence (P16732 whole entry): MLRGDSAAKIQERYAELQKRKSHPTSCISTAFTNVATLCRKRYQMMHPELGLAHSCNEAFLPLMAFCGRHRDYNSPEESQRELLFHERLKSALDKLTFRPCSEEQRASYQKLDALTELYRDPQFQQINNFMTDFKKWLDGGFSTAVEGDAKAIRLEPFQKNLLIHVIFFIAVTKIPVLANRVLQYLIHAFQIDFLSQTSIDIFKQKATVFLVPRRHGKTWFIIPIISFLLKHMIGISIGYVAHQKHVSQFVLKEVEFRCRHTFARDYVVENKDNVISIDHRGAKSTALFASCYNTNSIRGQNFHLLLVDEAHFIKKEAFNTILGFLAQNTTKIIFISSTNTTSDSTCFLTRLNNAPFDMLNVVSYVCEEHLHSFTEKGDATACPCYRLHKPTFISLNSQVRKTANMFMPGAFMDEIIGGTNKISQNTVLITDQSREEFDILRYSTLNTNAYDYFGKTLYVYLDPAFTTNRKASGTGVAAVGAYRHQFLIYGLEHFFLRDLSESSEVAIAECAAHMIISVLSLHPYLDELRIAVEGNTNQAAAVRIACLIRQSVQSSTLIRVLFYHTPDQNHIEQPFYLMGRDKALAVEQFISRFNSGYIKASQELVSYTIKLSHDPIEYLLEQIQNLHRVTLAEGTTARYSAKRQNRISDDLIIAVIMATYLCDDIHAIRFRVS

Molecule	decrease of the interaction signal with pUL89-WT (pUL56 deletion mutant versus wild-type pUL56, FIG. 2) [%]	Alpha assay signal relative to negative controls (3xHA-pUL56 or His-pUL89 alone) (500 nM 3xHA-pUL56 with 1.5 μM 6xHis-pUL89)	Alpha assay signal (light production at 615 nm) (500 nM 3xHA-pUL56 with 1.5 μM 6xHis-pUL89, purified proteins from HEK293)
B1	50	–	–
B2	–	over two-fold	over 9,000 relative light units (RLU)
